The RNAGym collection of RNA variant scans (doi:10.1073/pnas.2313332121)

B1: TPR t1 (parent)
chain: GACCAAUCUGCCCUCAGAGCUCGAGAACAUCUUCGGAUGCAGAGGAGGCAGGCUUCGGUGGCGCGAUAGCGCCAACGUCCUCAACCUCCAAUGCAUCCCACCACAUGAUGAUGCCUGAAGAGCCUUGGUUUUUUG

Variants of: B1
Assay: polymerase ribozyme fitness, log enrichment relative to wild type (log ratio); higher = more active; in vitro selection for triplet polymerase activity
Method in brief: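 Mutant libraries for each subunit of a heterodimeric triplet polymerase ribozyme were made by PCR and then transcribed. Each library underwent one round of in vitro selection in triplicate: annealing with a biotinylated primer, the partner subunit and triplets, frozen incubation at −7 °C, gel excision of extended constructs, streptavidin-bead capture and RT-PCR. Input and output libraries were Illumina-sequenced, and only genotypes with ≥10 input reads and ≥1 read per output were kept. Fitness is the logarithm, base 2, of genotype enrichment over wild-type enrichment, computed from inverse-variance-weighted replicate averages.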

Variant	polymerase ribozyme fitness (log ratio)
GACCAAUCAGCCCUCAGAGCUCGAGAACAUCUUCAGAUGCAGAGGAGGCAGGCUUCGGUGGCGCGAUAGCGCCAACGUCCUCAACCUCCAAUGCAUCCCACCACAUGAUGAUGCCUGAAGAGCCUUGGUUUUUUG [U9A G35A]	-3.25
GACCAAUCAGCCCUCAGAGCUCGAGAACAUCUUCGGAUGCAGAGGAGGCAGGCUUCGGUGGCGCGAUAGCGCCGACGUCCUCAACCUCCAAUGCAUCCCACCAAAUGAUGAUGCCUGAAGAGACUUGGUUUUUUG [U9A A74G C104A C123A]	-0.249
GACCAAUCAGCCCUCAGAGCUCGAGAACAUCUUCGGAUGCAGAGGAGGCAGGCUUCGGUGGCGCGAUAGCGCCAACGUCCUCAACCUCCAAUGCAUCCCACCACAUGAUGAUGACUGAAGAGCCUUGGUUUUUUG [U9A C114A]	0.123
GACCAAUCAGCCCUCAGAGCUCGAGAACAUCUUCGGAUGCAGAGGAGGCAGGCUUCGGUGGCGCGAUAGCGUCAACGUCCUCAACCUCCAAUGCAUCCCACCACAUGAUCAUGCCUGAAGAGCCUUGGUAUUUUG [U9A C72U G110C U130A]	-4.28
GACCAAUCAACCCUCAGAGCUCGAGAACAUCUUCGGAUGAAGAGGAGGCAGGCUUCGGUGGCGCGAUAGCGCCAACGCCCUCAACCUCCAAUGCAUCCCACCACAUGAUUAUGCCUGAAGAGUCUUGGUUUUUUG [U9A G10A C40A U78C G110U C123U]	-2.19
GACCAAUCAGCCGUCAGAGCUCGAGAACAUCUUCGGAUGCAGAGGAGGCAGGCUUCGGUGUCGCGAUAGCGCCAACGUCCUCAACCUCCAAUGCAUCCCACCACAUGAUGAUGCCUGAAGAGCCUUGGUUUUUUG [U9A C13G G61U]	0.255
GACCAAUCAGCCCUCAGAGCUCGAGAACAUCUUCGGAUGCAGAGGAGGCAGGCUUCGGUGGCGCGAUAGCGUCAACGUCCUCAACCUCCAAUGCAUCCCACCACAUGAUGAUGCCUGAAGAGGCUUGGUUUUUGG [U9A C72U C123G U134G]	2.67
GACCAAUCAGCCCUCAAAGCUCGAGAACAUCUUCGGAUGCAGAGGAGGCAGGCUUCGGUGGCGCGAUAGCGCCAACGUCCUCAACCUCCAAUGCAUCCCACCACAUGAUGAUACCUGAAGAGCCUUGGUUUUUUG [U9A G17A G113A]	-3.11
GACCAAUCAGCCCUCAGAGCUCGAGAACAUCUUCGGAUGCAGAGGAGGCAGGCUUAGGUGGCGCGAUAGCGCCAACGUCCUAAAACUCCAAUGCAUCCCACCACAUGAUGAUGCCUGAAGAGCCUUGGUUUUUUG [U9A C56A C82A C85A]	-0.979
GACCAAUCAGCCCUCAGAGCUCGAGAACAUCUUCGGAUGCAGAGGAGGCAGGCUUCGGUGGCGCGAUAGCGCCAACGUCCUCAACCUCCAAUGCAUCCCACCACAUGAUGUUGCCUGAAGAGCCUUGGUUUUUUG [U9A A111U]	-1.46
GACCAAUCAGCCCUCAGAGCUCGAGAACAUCUUAGGAUGCAGAGGAGGCAGGCUUCGGUGGCGCGAUAGCGACAACGUCCUCAACCUCCAAUGCAUCCCACUACAUGAUGAUGCCUGAAGAGACUUGUUUUUUUG [U9A C34A C72A C102U C123A G128U]	-1.61
GACCAAUCAGCCCUCAGAGCUCGAGAACAUCUUCGGAUGCAGAGGAGGCAGGCUUCGGUGGCGCGAUAGCGCCAACGUCCUCAACCUCCAAUGCAUCCCACCACAUGAUGAUGCGUGAAGAGCCUUGGUUUUUUG [U9A C115G]	1.95
GACCAAUCAGCCCUCAGAACUCGAGAACAUCUUCGGAUGCAGAGGAGGCAGUCUUCGGUGGCGCGAUAGCGCCAACGUCCUCAACCUCCAAUGCAUCCCACCACCUGAUGGUGCCUGAAAAGCCUUGGUUUUUUG [U9A G19A G52U A105C A111G G120A]	-5.2
GACCAAUCAGCCGUCUGAGCUCGAGAACAUCUUCGGAUGCUGAGGAGGCAGGCUUCGGUGGCGCGAUAGCGCCAACGUCCUCAACCUCCAAUGCAUCCCACCACAUGAUGAUGCCUGAAGAGCCUUGGUUUUUUG [U9A C13G A16U A41U]	-1.62
GACCAAUCAGCCCUCAGAGCUCGAGAACAUCUUCGGAUGCAGAGGAGGCAGGCUUCGGUGGCGCGAUAGCGCCAACGUCCUCAACCUCCAGUGCAUCCCACCACAUGAUGAUGCCUGAAGAGCCUUGGUUUUUUG [U9A A91G]	-0.793
GACCAAUCAGCCCUCAGAGCUCGAGAACAUCUUCGGAUGCAGAGGAGGCAGGCUUCGGUGGCGCGAUAGUGCCAACGUCCUCAACCUCCAAUGCAUCCCACCACAUGAUGAUGCCUGAAGAGCCUUGGUUUUUUG [U9A C70U]	0.25
GACCAAUCAGCCCUCAGAGCUCGAGAACAUCUUCGGAUGCAGAGGAGGCAGGCUUCGGUGGCGCGAUAGCGCCAACGUCCUCGACCUCCAAUGCAUCCCACCACAUGAUGAUGCCUGAAGAGCCUUGGUUUUUUG [U9A A83G]	-0.27
GACCAAUCAGCCCUCAGAGCUCGAGAACAUGUUCGGAUGCAGAGGAGGCAGGCUUCGGUGGCGCGAUAGCGCCAACGUCCUCCACCUCCAAUGCAUCCCACCACAUCAUGAUGCCUGAAGAGCCUUGGUUUUUUG [U9A C31G A83C G107C]	-1.45
GACCAAUCAGCCCUCAGAGCUCGAGAACAUCUUCGGAUGCAGAGGAGGCAGGCUUCGGUGGCGCGAUAGCGCCAACGUCCUCAACCUCCCAUGCAUCCCACCACAUGAUGAUGCCUGAAGAGCCUUGGUUUUUUG [U9A A90C]	-0.569
GACCAAUCAGCCCUCAGAGCUCGAGAACAUCUUCGGAUGCAGAGGAGGCAGGCUUCGGUGGCGCGAUAGCGCUAACGUCCUCAACCUCCAAUGCAUCCCACCACAUGAUGAUGCCUAAAGAGCCUUGGUUUUUUG [U9A C73U G117A]	0.559
GACCAAUCAGCCCUCAGAUCUCGAGAACAUCUUCGGAUGCAGAGGUGGCAGGCUUGGGUGGCGCGAUAGCGCCAACGUCCUCAACCUCCAAUGCAUCCCACCACAUGAUGAUGCCUGAAGAGCCUUGGUUUUGUG [U9A G19U A46U C56G U133G]	-4.95
